Assay results published in publication PMC10036536, “Optimizing human α-galactosidase for treatment of Fabry disease” (Scientific Reports, 2023).

Target: the molecule itself
Assay: SEC; protein eluted from concanavalin A-Sepharose; Superdex 200 PG 26/60, 2.4 mM Na2HPO4, 17.6 mM NaH2PO4 (pH 6.0), 150 mM NaCl, 0.02% Tween-20

B1: recombinant human α-galactosidase A (GLA) (enzyme, UniProt P06280 32-429, looked up)
chain: LDNGLARTPTMGWLHWERFMCNLDCQEEPDSCISEKLFMEMAELMVSEGWKDAGYEYLCIDDCWMAPQRDSEGRLQADPQRFPHGIRQLANYVHSKGLKLGIYADVGNKTCAGFPGSFGYYDIDAQTFADWGVDLLKFDGCYCDSLENLADGYKHMSLALNRTGRSIVYSCEWPLYMWPFQKPNYTEIRQYCNHWRNFADIDDSWKSIKSILDWTSFNQERIVDVAGPGGWNDPDMLVIGNFGLSWNQQVTQMALWAIMAAPLFMSNDLRHISPQAKALLQDKDVIAINQDPLGKQGYQLRQGDNFEVWERPLSGLAWAVAMINRQEIGGPRSYTIAVASLGKGVACNPACFITQLLPVKRKLGFYEWTSRLRSHINPTGTVLLQLENTMQMSLKDLL
notes: α-galactosidase A, human, UniProt P06280; The methods say fractions of the homodimer were pooled; also called rhGLA
Question: Which “stoichiometry N” value does the source give for B1 here?
Answer: The value was 2.
